The source of these data is US20190316133, “Anti-Fibrinogen Aptamers and Uses Thereof” (Laboratoire Francais du Fractionnement et des …, published 2019).

Data set [1] deals with T1, fibrinogen (transgenic human, from milk of transgenic cows) (Homo sapiens, UniProt P02671-2;P02675;P02679 P02671-2:20-644,P02675:31-491,P02679:27-453). The experiment in a line: SPR; high affinity stated. Particulars: tags: none; 97% purity; chain copies: 2; label: 5' biotin-triethylene glycol. On the procedure:
(§1) The selected aptamer was synthetized with Biotin and a triethylene glycol spacer at the 5′ end of the oligonucleotide. A 1 μM solution of the aptamer was prepared using the SELEX selection buffer. The aptamer solution was heated to 90° C. for 5 min, incubated on ice for 5 min and equilibrated to room temperature for 10 min. The preparation was injected on a streptavidin coated sensor chip SA of Biacore T200 instrument (GE Healthcare) at a flow rate of 10 μl/min for 7 min. Then, different concentrations of the target were injected to the immobilised aptamer at 30 μl/min for 1 minute. After dissociation for 1-2 min a wash step was performed by injecting a suitable wash buffer at 30 μl/min for 1 min. For elution, a suitable elution buffer was injected at 30 μl/min for 1-2 min. Finally the sensor chip was regenerated by injection of 50 mM NaOH at 30 μl/min for 30 sec. During the course of the experiment the response signal was recorded in a sensorgram.

Data set [2] addresses T1, fibrinogen (transgenic human, from milk …). The data set is described as follows: SPR; high affinity; pH-dependent. Particulars: tags: none; 97% purity; chain copies: 2. As to the method:
as §1
The core sequences of aptamers SEQ ID NO:1 and SEQ ID NO:58 (namely the minimal sequence binding to fibrinogen) were determined. The aptamer of SEQ ID NO:66 corresponds to the core sequence of aptamer of SEQ ID NO:1. The aptamer of SEQ ID NO:67 is the core sequence of aptamer of SEQ ID NO:58. FIGS. 3A-3D show the binding profile obtained for the core sequences of aptamers of SEQ ID NO:1 and NO:58 by SPR. […]

The target is the same in data set [3]. The experiment in a line: SPR; dose-dependent 125-1000 nM at pH 6.3; not eluted by 0.5 M NaCl; released at pH 7.4. Particulars: tags: none; 97% purity; chain copies: 2; label: 5' biotin-triethylene glycol. On the procedure: Each solution of transgenic fibrinogen was injected at pH 6.3 whereby a complex was formed in a dose-dependent manner as evidenced by the increase of the signals depending on the concentration of fibrinogen. […] Fibrinogen was then released from the complex by an elution buffer at pH 7.40. The solid support was then regenerated by injecting a solution of NaOH at 50 mM. X-axis: time in s. Y-axis: SPR response in arbitrary scale
as §1

Data set [4] shares this target. The experiment in a line: SPR; dose-dependent 125-1000 nM at pH 6.3; not eluted by 1 M NaCl; released at pH 7.4 with 2 M MgCl2. Particulars: tags: none; 97% purity; chain copies: 2; label: 5' biotin-triethylene glycol. As to the method:
Each solution of transgenic fibrinogen was injected at pH 6.3 whereby a complex was formed in a dose-dependent manner as evidenced by the increase of the signals depending on the concentration of fibrinogen. […] Fibrinogen was then released from the complex by an elution buffer at pH 7.40 and containing MgCl₂ at 2M. The solid support was then regenerated by injecting a solution of NaOH at 50 mM. X-axis: time in s. Y-axis: SPR response in arbitrary scale.
as §1, with “Finally the sensor chip was regenerated by injection of 50 mM NaOH at 30 μl/min for 30 sec.” left out

T1 sequence (P02671 other isoform, or with tags, fused parts or gaps, chain 1 of 3): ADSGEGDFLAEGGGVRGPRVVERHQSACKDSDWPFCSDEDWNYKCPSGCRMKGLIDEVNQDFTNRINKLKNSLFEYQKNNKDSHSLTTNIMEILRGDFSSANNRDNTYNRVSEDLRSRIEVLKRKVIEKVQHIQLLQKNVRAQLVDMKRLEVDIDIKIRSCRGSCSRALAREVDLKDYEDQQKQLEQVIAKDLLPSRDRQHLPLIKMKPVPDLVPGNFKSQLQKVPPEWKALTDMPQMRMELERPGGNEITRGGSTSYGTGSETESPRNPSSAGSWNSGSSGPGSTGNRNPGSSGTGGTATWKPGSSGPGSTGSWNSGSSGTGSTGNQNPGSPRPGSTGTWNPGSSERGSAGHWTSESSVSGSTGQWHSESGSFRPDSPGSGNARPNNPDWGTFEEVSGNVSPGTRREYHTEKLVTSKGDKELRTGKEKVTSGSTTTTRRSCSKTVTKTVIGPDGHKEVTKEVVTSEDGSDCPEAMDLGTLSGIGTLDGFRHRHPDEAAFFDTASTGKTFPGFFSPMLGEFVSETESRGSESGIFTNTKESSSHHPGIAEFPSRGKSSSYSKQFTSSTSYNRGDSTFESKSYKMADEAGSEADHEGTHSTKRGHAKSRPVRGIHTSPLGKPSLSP
T1 sequence (P02675 31-491, chain 2 of 3): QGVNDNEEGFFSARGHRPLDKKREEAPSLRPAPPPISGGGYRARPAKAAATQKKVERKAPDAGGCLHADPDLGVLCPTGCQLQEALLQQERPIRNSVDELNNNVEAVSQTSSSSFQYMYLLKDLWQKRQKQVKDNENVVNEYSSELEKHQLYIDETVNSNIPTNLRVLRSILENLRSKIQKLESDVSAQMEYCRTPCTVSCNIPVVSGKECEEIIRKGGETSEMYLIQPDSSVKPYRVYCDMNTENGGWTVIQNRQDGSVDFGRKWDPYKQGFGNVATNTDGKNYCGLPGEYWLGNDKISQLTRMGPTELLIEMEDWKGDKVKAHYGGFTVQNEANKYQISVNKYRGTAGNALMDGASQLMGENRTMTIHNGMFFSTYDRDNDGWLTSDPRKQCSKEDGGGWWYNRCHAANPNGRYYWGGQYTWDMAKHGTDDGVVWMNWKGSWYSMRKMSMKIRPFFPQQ
T1 sequence (P02679 27-453, chain 3 of 3): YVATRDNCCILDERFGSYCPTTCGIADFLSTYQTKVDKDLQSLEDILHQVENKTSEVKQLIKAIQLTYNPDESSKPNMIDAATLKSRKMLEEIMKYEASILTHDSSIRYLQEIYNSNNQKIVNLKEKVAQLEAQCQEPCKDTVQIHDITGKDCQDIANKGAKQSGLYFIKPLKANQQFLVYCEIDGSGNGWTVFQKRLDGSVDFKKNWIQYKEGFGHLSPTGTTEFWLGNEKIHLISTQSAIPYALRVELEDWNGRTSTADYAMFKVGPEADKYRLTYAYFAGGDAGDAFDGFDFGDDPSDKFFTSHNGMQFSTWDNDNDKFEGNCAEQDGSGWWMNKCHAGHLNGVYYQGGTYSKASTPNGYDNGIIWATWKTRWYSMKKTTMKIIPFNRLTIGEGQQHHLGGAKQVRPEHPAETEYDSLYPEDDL

B1: SEQ ID NO:60 aptamer (ssDNA)
DNA: GGGTCAATGCCAGGTCTCTGCGTACTTATCTCGATGTGGTTGGTAGGGATAGGTGTATATCGGCTCGCAAGCAGTC
As to B1, the binding result in data set [1] was “binds”.

B2: SEQ ID NO:65 aptamer (ssDNA)
DNA: GGGTCAATGCCAGGTCTCGAGCCGGTGTTGTGTTATGTTGGTAGGGAAGGTGTATAATATCGGCTCGCAAGCAGTC
As to B2, in data set [1], the binding result is reported as “binds”.

B3: SEQ ID NO:1 aptamer (ssDNA)
DNA: GGGTCAATGCCAGGTCTCGGACCTGGAATCCGCCACCCGCATTAGAACCAGGGTTGACATCGGCTCGCAAGCAGTC
Regarding B3, the binding result in data set [2] is “binds”.

B4: A5-1.9 (core of SEQ ID NO:1) (ssDNA)
DNA: GGGTCAATGCCAGGTCTCGGACCTGGAATCCGCCACCCGCATTAGAACCAGGGTTGAC
B4: in data set [3], the binding result is recorded as “binds”.

B5: SEQ ID NO:58 aptamer (ssDNA)
DNA: GGGTCAATGCCAGGTCTCAACTTTCGCGTGTGGTTGGTAGGGCTAGGTGTATACGCATATCGGCTCGCAAGCAGTC
As to B5, the binding result in data set [2] is given as “binds”. Consider CGCGTGTGGTTGGTAGGGCTAGGTGTATACGCAT (ssDNA) [A5-2.9 (core of SEQ ID NO:58)], for which the binding result in data set [4] is “binds”.
